# Target: yeast Nsp1p FG-fragment Nsp1p-12FF (residues 262-492; 1xFG, 11xFSFG) (yeast) (UniProt P14907)
# Experiment: plasmonic nanopore sensing (shift of the extinction dip); cNsp1 grafted to the interior silicon nitride walls of smaller nanopores (upper diameter 80-90 nm, lower 50-60 nm); Kapβ1 added in increasing concentrations in PBS; equilibrium dip shift averaged over ~10 min; fit to a two component Langmuir isotherm
substance,measurement,value
karyopherinβ1 (from UniProt Q14974 1-876) (natural protein),"K1 (two component Langmuir isotherm, configuration 1)",341 nM
same,"K2 (two component Langmuir isotherm, configuration 2)",3.8 µM
